Laboratory results reported in patent publication US20220306734A1 (H LUNDBECK A S, published 2022).
Read-outs that look alike come from different tables or passages of the source.

B1: mGluR5 Ab4 (antibody, V domains shown)
VH: QQQLEESGGGLVKPGGTLTLTCKGSGIDFNDYQYMCWVRQAPGKGLEWIACIYNGDGETYYAHWAKGRFTISKTSSTTVTLQMTSLTAADTATYFCARGSGVGSYGYNFWGPGTLVTVSS
VL: DIVMTQTPASVEAAVGGTVTIKCQASESIYSNLAWYQQKAGQPPKLLIYRASNLASGVPSRFKGSGSGTEFTLTISDLECADAATYYCQGYYASTVTNGFGGGTEVVVKR
notes: Rabbit variable regions on human heavy and light chain constant regions (chimeric)
B2: mGluR5 Ab22 (antibody, V domains shown)
VH: QSLEESGGDLVKPGASLTLTCTASGFSFSTSYYMCWVRQAPGKGLEWIGCIHTSTFSTWYASWAKGRFTISKTSSTTVTLQMTSLTAADTATYFCARRDAYNYAGYAYNLWGQGTLVTVSS
VL: DVVMTQTPASVSAAVGGTVTINCQASEDIYSNLAWYQQKPGQPPKLLIYGASTLASGVPSRFKGSGSGTEFTLTISDLECADAATYYCQCTFGCFSGSSNNIFGGGTEVVVKR

Columns and labels:
[1] = biological target: full-length (FL) human mGluR5 on BA/F3-mGluR5 clone 10C9 cells (human) (UniProt P41594); assay: flow cytometry, BA/F3-mGluR5 10C9 cells, 10 ug/ml antibody
[2] = biological target: human mGluR5 extracellular domain (human-mGluR5-ECD) (human) (UniProt P41594); assay: HTRF, soluble ECD
human mGluR5 extracellular domain (human-mGluR5-ECD) (human), sequence (P41594 other isoform, or with tags, fused parts or gaps): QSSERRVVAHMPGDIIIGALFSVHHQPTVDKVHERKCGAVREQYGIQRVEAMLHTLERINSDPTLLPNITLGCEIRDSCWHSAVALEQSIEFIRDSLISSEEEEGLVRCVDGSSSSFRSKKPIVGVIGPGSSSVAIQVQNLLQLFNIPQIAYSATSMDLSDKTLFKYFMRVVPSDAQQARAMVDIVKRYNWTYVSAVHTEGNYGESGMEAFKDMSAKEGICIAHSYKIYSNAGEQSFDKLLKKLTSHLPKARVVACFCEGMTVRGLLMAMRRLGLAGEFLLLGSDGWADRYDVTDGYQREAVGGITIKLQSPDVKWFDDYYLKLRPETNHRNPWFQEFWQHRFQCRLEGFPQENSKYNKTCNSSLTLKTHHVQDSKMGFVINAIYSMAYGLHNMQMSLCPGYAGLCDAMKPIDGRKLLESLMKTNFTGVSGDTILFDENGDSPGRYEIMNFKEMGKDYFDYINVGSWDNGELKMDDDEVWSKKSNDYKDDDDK

[3] = biological target: human mGluR5 extracellular domain (human-mGluR5-ECD) (human) (UniProt P41594); assay: HTRF, soluble ECD; remark: listed apart in the source
[4] = biological target: full-length (FL) human mGluR5 on BA/F3-mGluR5 clone 10C9 cells (human) (UniProt P41594); assay: flow cytometry, BA/F3-mGluR5 10C9 cells; high end tied to Ab4 by Table 2
[5] = biological target: full-length (FL) human mGluR5 on BA/F3-mGluR5 clone 10C9 cells (human) (UniProt P41594); assay: cell-based or functional assay
[6] = biological target: T1, human mGluR1 extracellular domain (human-mGluR1-ECD) (human, UniProt Q13255 19-592, limits assumed); assay: HTRF, soluble ECD
T1 construct: ECD construct made 'in a similar fashion' to the human mGluR5 one; also called hu-mGluR1
T1 sequence (Q13255 other isoform, or with tags, fused parts or gaps limits assumed): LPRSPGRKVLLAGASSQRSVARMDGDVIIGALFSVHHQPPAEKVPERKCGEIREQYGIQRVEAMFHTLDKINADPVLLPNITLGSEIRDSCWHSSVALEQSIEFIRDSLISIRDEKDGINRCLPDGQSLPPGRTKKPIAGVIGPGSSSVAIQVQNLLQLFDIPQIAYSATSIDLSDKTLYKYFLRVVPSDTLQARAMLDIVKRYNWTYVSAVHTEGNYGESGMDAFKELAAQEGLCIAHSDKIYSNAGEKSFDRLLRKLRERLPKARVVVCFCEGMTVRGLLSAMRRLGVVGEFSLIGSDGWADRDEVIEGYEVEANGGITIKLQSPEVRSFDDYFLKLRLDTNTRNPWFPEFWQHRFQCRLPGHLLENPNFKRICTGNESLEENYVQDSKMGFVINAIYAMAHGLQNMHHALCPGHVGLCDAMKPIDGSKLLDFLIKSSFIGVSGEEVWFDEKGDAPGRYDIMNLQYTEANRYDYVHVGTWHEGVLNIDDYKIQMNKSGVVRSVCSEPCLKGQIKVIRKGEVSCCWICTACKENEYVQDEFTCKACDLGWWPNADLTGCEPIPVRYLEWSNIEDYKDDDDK
Protocol: (§1) Binding of antibodies to mGluR5/mGluRJ measured via Homogeneous Time-Resolved Fluorescence (HTRF). Binding assays were performed using HTRF reagents from CisBio. Ten microliters of an antibody dilution series (highest final concentration of 30 nM) was incubated with 10 μl of mGluR-ECD (10 nM final concentration) in HTRF buffer (50 mM Phosphate buffer pH7, 0.8M KF (potassium fluoride), 0.2% BSA). Twenty microliters of Europium-labeled anti-hu-Fc donor (2 nM final concentration, CisBio Catalog No. 61HFCKLB) and 20 μl of XL665-labeled anti-Flag acceptor (60 nM final concentration, CisBio Catalog No. 61FG2XLB) were added to each well and incubated for 1 hour at room temperature. Alternatively, the antibody dilution series was incubated with 10 μl of biotinylated mGluR-ECD (10 nM final concentration), and 20 μl of Europium-labeled anti-hu-Fc donor (2 nM final concentration) and 20 μl of d2-labeled streptavidin acceptor (60 nM final concentration, CisBio Catalog No. 610SADLB) were added to each well. Fluorescence was measured at 620 and 665 nm with a delay of 300 μsec. Results were expressed as the ratio of signal at 665 nm over 620 nm. EC₅₀ values were calculated for binding of Ab1-Ab23 to human-mGluR5-ECD, of Ab1-Ab21 to rat-mGluR5-ECD, and of Ab1, Ab2 and Ab4-Ab12 to monkey-mGluR5-ECD and to human-mGluR1-ECD (TABLE 1).

[7] = biological target: T2, rat mGluR5 extracellular domain (rat-mGluR5-ECD) (rat, UniProt P31424 21-504); assay: HTRF, soluble ECD
T2 construct: ECD construct made 'in a similar fashion' to the human one
T2 sequence (P31424 other isoform, or with tags, fused parts or gaps limits assumed, form in doubt): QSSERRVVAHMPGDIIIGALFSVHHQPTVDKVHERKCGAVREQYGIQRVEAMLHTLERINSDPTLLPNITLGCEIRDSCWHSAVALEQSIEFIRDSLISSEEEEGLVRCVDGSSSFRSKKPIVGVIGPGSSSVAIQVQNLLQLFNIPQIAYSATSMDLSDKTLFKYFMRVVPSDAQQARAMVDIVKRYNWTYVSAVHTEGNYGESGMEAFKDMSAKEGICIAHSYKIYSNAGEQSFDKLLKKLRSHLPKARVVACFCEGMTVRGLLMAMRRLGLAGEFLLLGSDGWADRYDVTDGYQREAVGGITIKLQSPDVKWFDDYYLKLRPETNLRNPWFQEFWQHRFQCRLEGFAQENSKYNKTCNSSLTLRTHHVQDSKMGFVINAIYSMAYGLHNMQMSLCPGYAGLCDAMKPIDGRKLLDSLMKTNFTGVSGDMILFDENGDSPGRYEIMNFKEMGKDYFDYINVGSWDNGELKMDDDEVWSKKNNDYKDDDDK
Protocol: as §1

[8] = biological target: T3, cynomolgus monkey mGluR5 extracellular domain (monkey-mGluR5-ECD) (cynomolgus monkey, UniProt P41594 21-580 (human entry), limits assumed); assay: HTRF, soluble ECD
T3 construct: ECD construct made 'in a similar fashion' to the human one; also called cyno-mGluR5
T3 sequence (P41594 other isoform, or with tags, fused parts or gaps limits assumed): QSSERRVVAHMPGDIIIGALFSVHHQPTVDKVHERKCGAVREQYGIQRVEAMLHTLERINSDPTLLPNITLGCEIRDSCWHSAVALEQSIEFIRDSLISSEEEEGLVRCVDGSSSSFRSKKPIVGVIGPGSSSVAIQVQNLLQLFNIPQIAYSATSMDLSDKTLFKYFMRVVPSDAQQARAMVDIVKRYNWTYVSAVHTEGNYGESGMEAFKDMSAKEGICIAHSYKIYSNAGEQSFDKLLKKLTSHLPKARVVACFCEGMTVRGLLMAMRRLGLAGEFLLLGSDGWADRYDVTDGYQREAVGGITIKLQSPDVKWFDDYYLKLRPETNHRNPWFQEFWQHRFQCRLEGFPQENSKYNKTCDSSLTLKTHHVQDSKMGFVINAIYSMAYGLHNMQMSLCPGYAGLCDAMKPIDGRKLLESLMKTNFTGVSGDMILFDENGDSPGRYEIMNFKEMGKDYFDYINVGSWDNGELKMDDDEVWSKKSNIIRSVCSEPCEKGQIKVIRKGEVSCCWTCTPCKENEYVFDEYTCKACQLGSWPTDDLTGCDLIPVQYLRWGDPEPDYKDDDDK
Protocol: as §1

[9] = biological target: full-length (FL) human mGluR5 on BA/F3-mGluR5 clone 10C9 cells (human) (UniProt P41594); assay: flow cytometry, BA/F3-mGluR5 10C9 cells; low end tied to Ab22 by Table 2

Binder	mGluR5 (FL) cell binding-fold over background [1]	EC50 [2]	EC50 [3]	fold signal over background [4]	pERK Assay Inhibition IC50-nM [5]	binding result [6]	EC50 [7]	EC50 [8]	fold signal over background [9]
B1	41.8 fold	0.293 nM	< 2 nM	10 to 42 fold	0.34 nM	no binding	0.332 nM	0.286 nM	–
B2	10.9 fold	0.439 nM	< 2 nM	–	8.33 nM	–	–	–	10 to 42 fold
